Reference: patent US20100129369A1
Each block holds one substance with its values, some of them ahead of it.

Molecular target: human c-Met (human) (UniProt P08581)
Test: cell-based or functional assay

human hepatocyte growth factor (HGF), sequence (P14210 32-728 limits assumed): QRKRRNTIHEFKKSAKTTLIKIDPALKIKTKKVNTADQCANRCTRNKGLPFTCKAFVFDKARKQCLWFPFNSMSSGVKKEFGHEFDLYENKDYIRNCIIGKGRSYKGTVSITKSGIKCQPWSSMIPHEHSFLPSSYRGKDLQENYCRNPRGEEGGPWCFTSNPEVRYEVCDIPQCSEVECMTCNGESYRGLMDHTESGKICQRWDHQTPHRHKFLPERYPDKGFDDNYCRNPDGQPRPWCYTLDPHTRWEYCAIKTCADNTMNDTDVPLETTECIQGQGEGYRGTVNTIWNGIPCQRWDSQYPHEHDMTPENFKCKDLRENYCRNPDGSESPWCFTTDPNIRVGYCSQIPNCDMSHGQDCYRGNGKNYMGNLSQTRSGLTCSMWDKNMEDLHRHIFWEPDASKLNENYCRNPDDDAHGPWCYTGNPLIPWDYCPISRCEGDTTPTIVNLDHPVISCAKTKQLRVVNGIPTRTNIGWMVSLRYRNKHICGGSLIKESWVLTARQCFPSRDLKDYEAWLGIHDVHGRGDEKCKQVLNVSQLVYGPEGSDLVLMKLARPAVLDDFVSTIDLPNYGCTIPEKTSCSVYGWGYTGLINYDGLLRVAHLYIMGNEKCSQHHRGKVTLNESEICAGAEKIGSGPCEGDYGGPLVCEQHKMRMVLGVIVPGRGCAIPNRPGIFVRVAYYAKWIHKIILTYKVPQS
human c-Met (human), sequence (P08581 25-1390): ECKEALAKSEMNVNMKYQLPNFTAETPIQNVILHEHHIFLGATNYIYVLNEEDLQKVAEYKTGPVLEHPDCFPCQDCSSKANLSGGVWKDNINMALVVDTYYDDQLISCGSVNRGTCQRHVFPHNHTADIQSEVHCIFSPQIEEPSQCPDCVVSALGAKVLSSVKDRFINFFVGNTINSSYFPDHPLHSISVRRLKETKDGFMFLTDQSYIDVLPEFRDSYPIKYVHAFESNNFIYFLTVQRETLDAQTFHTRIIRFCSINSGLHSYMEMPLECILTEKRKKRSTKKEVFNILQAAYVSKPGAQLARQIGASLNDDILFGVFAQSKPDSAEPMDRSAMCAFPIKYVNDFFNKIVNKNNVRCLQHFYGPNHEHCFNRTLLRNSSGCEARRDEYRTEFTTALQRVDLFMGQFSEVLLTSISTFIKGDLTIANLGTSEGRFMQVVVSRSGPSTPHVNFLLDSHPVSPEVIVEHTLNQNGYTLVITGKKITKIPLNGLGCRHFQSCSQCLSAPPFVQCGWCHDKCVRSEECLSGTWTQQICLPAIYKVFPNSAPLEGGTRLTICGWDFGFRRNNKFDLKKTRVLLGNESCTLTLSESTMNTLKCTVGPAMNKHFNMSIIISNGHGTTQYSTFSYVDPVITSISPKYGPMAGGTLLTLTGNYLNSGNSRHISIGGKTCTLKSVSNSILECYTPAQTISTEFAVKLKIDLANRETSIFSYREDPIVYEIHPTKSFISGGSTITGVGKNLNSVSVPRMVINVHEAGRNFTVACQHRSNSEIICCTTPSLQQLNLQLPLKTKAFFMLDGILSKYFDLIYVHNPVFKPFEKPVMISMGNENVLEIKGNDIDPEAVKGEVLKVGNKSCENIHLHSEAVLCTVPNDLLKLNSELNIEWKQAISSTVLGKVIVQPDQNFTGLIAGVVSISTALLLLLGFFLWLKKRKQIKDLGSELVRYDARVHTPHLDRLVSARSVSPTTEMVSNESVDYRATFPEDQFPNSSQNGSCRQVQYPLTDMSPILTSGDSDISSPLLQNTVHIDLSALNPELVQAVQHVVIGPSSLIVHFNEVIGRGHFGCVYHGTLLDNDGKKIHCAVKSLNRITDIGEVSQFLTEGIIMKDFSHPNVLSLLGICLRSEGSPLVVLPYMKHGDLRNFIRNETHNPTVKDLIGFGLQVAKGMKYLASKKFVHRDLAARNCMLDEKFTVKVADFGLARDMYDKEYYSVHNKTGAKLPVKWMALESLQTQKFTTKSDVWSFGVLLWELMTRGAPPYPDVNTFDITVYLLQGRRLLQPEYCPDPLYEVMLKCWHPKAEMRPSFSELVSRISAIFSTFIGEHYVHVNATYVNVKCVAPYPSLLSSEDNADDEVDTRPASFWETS

3H-Thymidine Incorporation in Primary Human Hepatocytes (ave), HGF 200 ng/mL: 6290
H441 Scratch Assay, Avg. %, HGF 200 ng/mL: 364%
HepG2 Cell Invasiveness, Average Cell Number Per 2.5x Field, HGF 50 ng/mL (cells per 2.5x field): 510
Percent of DU145 Cells in Colonies (scatter assay), HGF 20 ng/mL: 8.15%
Staurosporine-Induced Apoptosis in Caki-1 Cells, Average A450 nm, HGF 0.02 ng/mL: 0.97 A450 nm
Staurosporine-Induced Apoptosis in Caki-1 Cells, Average A450 nm, HGF 0.23 ng/mL: 0.93 A450 nm
Staurosporine-Induced Apoptosis in Caki-1 Cells, Average A450 nm, HGF 2.25 ng/mL: 0.73 A450 nm
Staurosporine-Induced Apoptosis in Caki-1 Cells, Average A450 nm, HGF 22.5 ng/mL: 0.58 A450 nm
Staurosporine-Induced Apoptosis in Caki-1 Cells, Average A450 nm, HGF 225 ng/mL: 0.45 A450 nm
Tube Formation in ECFC Cells, Total Tube Area (Avg.), HGF 100 ng/mL: 212000
Tubular Morphogenesis Agonist activity (fold stimulation) in HepG2 cells, HGF 50 ng/ml (fold stimulation): 5.4
Substance: human hepatocyte growth factor (HGF) (from UniProt P14210 32-728) (ligand)

3H-Thymidine Incorporation in Caki-1 Cells in the Absence of HGF (AVG CPM), antibody dose 0.1 ng/mL: 14400 CPM
3H-Thymidine Incorporation in Caki-1 Cells in the Absence of HGF (AVG CPM), antibody dose 0.4 ng/mL: 12900 CPM
3H-Thymidine Incorporation in Caki-1 Cells in the Absence of HGF (AVG CPM), antibody dose 2.6 ng/mL: 12500 CPM
3H-Thymidine Incorporation in Caki-1 Cells in the Absence of HGF (AVG CPM), antibody dose 15.4 ng/mL: 11700 CPM
3H-Thymidine Incorporation in Caki-1 Cells in the Absence of HGF (AVG CPM), antibody dose 92.6 ng/mL: 15600 CPM
3H-Thymidine Incorporation in Caki-1 Cells in the Absence of HGF (AVG CPM), antibody dose 555.6 ng/mL: 20000 CPM
3H-Thymidine Incorporation in Caki-1 Cells in the Absence of HGF (AVG CPM), antibody dose 3333.3 ng/mL: 19000 CPM
3H-Thymidine Incorporation in Caki-1 Cells in the Absence of HGF (AVG CPM), antibody dose 20000.0 ng/mL: 19900 CPM
3H-Thymidine Incorporation in Primary Human Hepatocytes in the Absence of HGF (average), dose 0.0032 ug/mL: 822
3H-Thymidine Incorporation in Primary Human Hepatocytes in the Absence of HGF (average), dose 0.016 ug/mL: 1720
3H-Thymidine Incorporation in Primary Human Hepatocytes in the Absence of HGF (average), dose 0.08 ug/mL: 3320
3H-Thymidine Incorporation in Primary Human Hepatocytes in the Absence of HGF (average), dose 0.4 ug/mL: 3760
3H-Thymidine Incorporation in Primary Human Hepatocytes in the Absence of HGF (average), dose 2 ug/mL: 4910
3H-Thymidine Incorporation in Primary Human Hepatocytes in the Absence of HGF (average), dose 10 ug/mL: 4980
% inhibition of HGF stimulated phospho-Met (ELISA, HCT116 cells), Ab 0.0032 µg/mL: -6.07%
% inhibition of HGF stimulated phospho-Met (ELISA, HCT116 cells), Ab 0.016 µg/mL: -3.5%
% inhibition of HGF stimulated phospho-Met (ELISA, HCT116 cells), Ab 0.08 µg/mL: 11.9%
% inhibition of HGF stimulated phospho-Met (ELISA, HCT116 cells), Ab 0.4 µg/mL: 42.5%
% inhibition of HGF stimulated phospho-Met (ELISA, HCT116 cells), Ab 2 µg/mL: 63.8%
% inhibition of HGF stimulated phospho-Met (ELISA, HCT116 cells), Ab 10 µg/mL: 64.1%
AVG CPM, 3H-thymidine incorporation in MKN45 cells, Ab 0.0 ng/mL (no antibody): 50300 CPM
AVG CPM, 3H-thymidine incorporation in MKN45 cells, Ab 0.1 ng/mL: 51900 CPM
AVG CPM, 3H-thymidine incorporation in MKN45 cells, Ab 0.4 ng/mL: 49600 CPM
AVG CPM, 3H-thymidine incorporation in MKN45 cells, Ab 2.6 ng/mL: 55000 CPM
AVG CPM, 3H-thymidine incorporation in MKN45 cells, Ab 15.4 ng/mL: 49800 CPM
AVG CPM, 3H-thymidine incorporation in MKN45 cells, Ab 92.6 ng/mL: 39600 CPM
AVG CPM, 3H-thymidine incorporation in MKN45 cells, Ab 555.6 ng/mL: 39500 CPM
AVG CPM, 3H-thymidine incorporation in MKN45 cells, Ab 3333.3 ng/mL: 38200 CPM
AVG CPM, 3H-thymidine incorporation in MKN45 cells, Ab 20000.0 ng/mL: 35100 CPM
H441 Scratch Assay, Avg. %, antibody 10 ug/mL: 244%
HepG2 Cell Invasiveness, Average Cell Number Per 2.5x Field, antibody 10.00 ug/mL (cells per 2.5x field): 85
Mean Fluorescence (c-Met left on the surface of MKN45 cells, FACS), Ab 5.00 ug/mL: 92.9
Percent of DU145 Cells in Colonies (scatter assay), antibody 20 ug/mL: 14.4%
Tube Formation in ECFC Cells, Total Tube Area (Avg.), antibody 10 ug/mL: 147000
Tubular Morphogenesis Agonist activity (fold stimulation) in HepG2 cells, antibody 50 ug/ml (fold stimulation): 4.9
p-Met signal (pY1349 ELISA, A549 cells), Ab Conc. 5 (ng/mL as printed): 3.29
Substance: Murine IgG1 c-Met antibody 5D5
